The values that follow come from patent EP4782466A1, “FUSION PROTEIN FOR INACTIVATING CORONAVIRUS AND USE THEREOF” (priority 2023, dated 2025).

Holding throughout (assay): cell-based or functional assay
Assay [1] concerns the target S protein of SARS-CoV-2 prototype strain (SARS-CoV-2 prototype) (UniProt P0DTC2).
Assay [2] addresses S protein of bat-derived SARS-CoV-like coronavirus WIV1 (bat-derived SARS-CoV-like coronavirus WIV1).
The target in assay [3] is S protein of SARS-CoV (SARS-CoV) (UniProt P59594).
Assay [4] concerns the target S protein of Human Coronavirus NL63 (Human Coronavirus NL63) (UniProt Q6Q1S2).
The target in assay [5] is S protein of bat-derived SARS-CoV-like coronavirus Rs3367 (bat-derived SARS-CoV-like coronavirus Rs3367).

For “AL2E protein (ACE2-linker-EK1 fusion protein with (GGGGS)2 linker) (from UniProt Q9BYF1 18-615)”, the IC50, inhibition of pseudovirus infection (Caco-2, luciferase) in assay [1] turned out to be 0.6 nM.

On to “AL7E protein (ACE2-linker-EK1 fusion protein with (GGGGS)7 linker)”, for which the IC50, inhibition of pseudovirus infection (Caco-2, luciferase) in assay [1] turned out to be 0.37 nM.

Turning to EK1 polypeptide, the IC50, inhibition of pseudovirus infection (Caco-2, luciferase) in assay [2] worked out at 2450 nM; in assay [3] it was 841 nM; in assay [1], 186 nM; in assay [4], 1070 nM; in assay [5] it was 1340 nM.

Take “AL5E protein (ACE2-linker-EK1 fusion protein with (GGGGS)5 linker)”: in assay [2], the EC50, inactivation of pseudovirus (Caco-2, luciferase) was found to be 3.54 nM; the Fold enhancement in activity of AL5E over ACE2 (EC50, pseudovirus inactivation) stood at 214 fold; the Fold enhancement in activity of AL5E over ACE2 (IC50, pseudovirus inhibition) is 71.2 fold; the IC50, inhibition of pseudovirus infection (Caco-2, luciferase) was determined as 3.36 nM. Besides, in assay [3], the EC50, inactivation of pseudovirus (Caco-2, luciferase) amounted to 18.1 nM; the Fold enhancement in activity of AL5E over ACE2 (EC50, pseudovirus inactivation) turned out to be 68.1 fold; the Fold enhancement in activity of AL5E over ACE2 (IC50, pseudovirus inhibition) was 13.8 fold; the IC50, inhibition of pseudovirus infection (Caco-2, luciferase) is 0.69 nM. For the same substance, in assay [1], the EC50, inactivation of pseudovirus (Caco-2, luciferase) was 5.1 nM; the Fold enhancement of AL5E over ACE2 (EC50, pseudovirus inactivation) was 22.2 fold; the Fold enhancement of AL5E over ACE2 (IC50, pseudovirus inhibition) was 26.9 fold; the IC50, inhibition of pseudovirus infection (Caco-2, luciferase) was 0.26 nM. In assay [4], the EC50, inactivation of pseudovirus (Caco-2, luciferase) came to 1.08 nM; the Fold enhancement in activity of AL5E over ACE2 (EC50, pseudovirus inactivation) was 540 fold; the Fold enhancement in activity of AL5E over ACE2 (IC50, pseudovirus inhibition) was determined as 34.4 fold; the IC50, inhibition of pseudovirus infection (Caco-2, luciferase) is 0.83 nM. In assay [5], the EC50, inactivation of pseudovirus (Caco-2, luciferase) is 10.7 nM; the Fold enhancement in activity of AL5E over ACE2 (EC50, pseudovirus inactivation) is 25.6 fold; the Fold enhancement in activity of AL5E over ACE2 (IC50, pseudovirus inhibition) was 42.2 fold; the IC50, inhibition of pseudovirus infection (Caco-2, luciferase) was determined as 5.9 nM.

As to “AL6E protein (ACE2-linker-EK1 fusion protein with (GGGGS)6 linker)”, the IC50, inhibition of pseudovirus infection (Caco-2, luciferase) in assay [1] turned out to be 0.23 nM.

For the substance “ACE2 protein alone (ACE2 peptidase domain alone) (from UniProt Q9BYF1 18-615) (receptor)”, the EC50, inactivation of pseudovirus (Caco-2, luciferase) in assay [2] amounted to 758 nM; in assay [3] it was 1240 nM; in assay [5] it was 274 nM. Moreover, the IC50, inhibition of pseudovirus infection (Caco-2, luciferase) in assay [2] was determined as 239 nM; in assay [3], 9.5 nM; in assay [5], 249 nM.
